Assay results published in the nanobody polyreactivity screen of Harvey et al. (2022).

assay: yeast display, Sf9 membrane polyspecificity reagent, FACS + sequencing; frameworks hold sequencing errors
Outline: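 After 36–48 hours of galactose induction, yeast (Saccharomyces cerevisiae BJ5465) displaying a synthetic nanobody library were stained at 4 °C for 1 hour with 10% biotinylated, detergent-solubilized Sf9 membrane reagent. Streptavidin microbeads enriched the stained cells before FACS sorting into low and high (top ~1%) gates on anti-HA and streptavidin fluorescence. Each clone's polyreactivity label reflects its gate of origin.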

Row | Sequence | polyreactivity (PSR sort gate)
1 | QVQLVESGGGLVQAGGSLRLSCAASGFIFGYYAMGWYRQAPGKERELVAAISKSGGRTRYADSVKGRFTISRDNAKNTVYLQMNSLKPEDTAVYYCATYDPARSTQGYDYWGQGTQVTVSS | high polyreactivity
2 | QVQLVESGGGLVQAGGSLRLSCAASGFIFGYYAMGWYRQAPGKERELVAVISRGGGSTHYADSVKGRFTISRDNAKNTVYLQMNSLKPEDTAVYYCAAQLGRRSATYYYWGQGTQVTVSS | high polyreactivity
3 | QVQLVESGGGLVQAGGSLRLSCAASGFIFGYYTMGWYRQAPGKERELVAAISSRGGSTYYADSVKGRFTISRDNAKNTVYLQMNSLKPEDTAVYYCAKRSTYTGSWWERGYWGQGTQVTVSS | high polyreactivity
4 | QVQLVESGGGLVQAGGSLRLSCAASGFIFGYYVMGWYRQAPGKERELVAAISGSGGRTYYADSVKGRFTISRDNAKNNVYLQMNSLKPEDTAVYYCNAVAFYRDYNYWGQGTQVTVSS | high polyreactivity
5 | QVQLVESGGGLVQAGGSLRLSCAASGFIFHGYTMGWYRQAPGKERELVAGISFTGGSTYYADSVKGRFTISRDNAKNTVYLQMNSLKPEDTAVYYCAATYSSYWARYYYWGQGTQVTVSS | high polyreactivity
6 | QVQLVESGGGLVQAGGSLRLSCAASGFIFHKYAMGWYRQAPGKERELVARITGSGASTFYADSVKGRFTISRDNAKNTVYLQMNSLKPEDTAVYYCAATIGSLLKYNRHRYYYWGQGTQVTVSS | high polyreactivity
7 | QVQLVESGGGLVQAGGSLRLSCAASGFIFHNYAMGWSRQAPGKERELVAAISWSGSRTYYADSVKGRFTISRDNAKNTVYLQMNSLKPEDTAVYYCNAPGSPVVQQPGYYWGQGTQVTVSS | low polyreactivity
8 | QVQLVESGGGLVQAGGSLRLSCAASGFIFHRYAMGGYRQAPGKERELVASITRSGGSTYYADSVKGRFTISRDNAKNTVYLQMNSLKPEDTAVYYCAAQLPSYYKYPRHDYWGQGTQVTVSS | high polyreactivity
9 | QVQLVESGGGLVQAGGSLRLSCAASGFIFHRYAMGWYRQAPGKERELVAAISRRGGSTYYADSVKGRFTISRDNAKNTVYLQMNSLKPEDTAVYYCARTVGDRTLLESDSWGQGTQVTVSS | high polyreactivity
10 | QVQLVESGGGLVQAGGSLRLSCAASGFIFHVYAMGWYRQAPGKERELVAAISGTGGSTYYADSVKGRFTISRDTALNTVSLQMNSLKPEDTAVYYYKAERSGNGYCGQGTQVTVSS | high polyreactivity
11 | QVQLVESGGGLVQAGGSLRLSCAASGFIFHYNAMGWYRPAPGKERELVAAITSGDSTDYADSVKGRFTISRDNAKNTVYLQMNSLKREDTAVYYCAAAEGYLSKYENDYWGQGTQVTVSS | low polyreactivity
12 | QVQLVESGGGLVQAGGSLRLSCAASGFIFIAYAMGWYRQAPGKERELVAAISKSGTRTYYADSVKGRFTISRDNAKNTVYLQMNSLKPEDTAVYYCATYSTYNKGTHGDYWGQGTQVTVSS | high polyreactivity
13 | QVQLVESGGGLVQAGGSLRLSCAASGFIFIINAMGWYRQAPGKEREFVAAITGSGGSTYYADSVKGRFTISRDNAKNTVYLQMNSLKPEDTAVYYCAKVGPYYSGKVYGRTYYSRYGYWGQGTQVTVSS | low polyreactivity
14 | QVQLVESGGGLVQAGGSLRLSCAASGFIFIRYAMGWYIQAPGKERELVASSTGRGGSTYYADSVKVRFTISRDNAKNTVYLQMNSLKPEDTAVYYCAAYYRYPTGWRWGGYYLYDYWGQGTQVTVSS | high polyreactivity
15 | QVQLVESGGGLVQAGGSLRLSCAASGFIFKANAMGWYRQAPGKERELVASITFGGDSTYYADSVKGRFTISRDNAKNTVYLQMNSLKPEDTAVYYCNTRRRSYRTYYYWGQGTQVTVLS | low polyreactivity
16 | QVQLVESGGGLVQAGGSLRLSCAASGFIFKHYAMGWYRQAPGKERELVAAISRSTGRTNYADSVKGRFTISRDNAKNTDYLQMNSLKPEDTAVYYCAAYRYLRYDYWGQGTQVTVSS | high polyreactivity
17 | QVQLVESGGGLVQAGGSLRLSCAASGFIFKNYAMGWYRQAPGKERELVAAITSSGGNTYYADSVKGRFTISRDNAKNTVYLQMNSLKPEDTAVYYCNARFRTLYWGQGTQVTVSS | high polyreactivity
18 | QVQLVESGGGLVQAGGSLRLSCAASGFIFKRNAMGWYRQATGNERELVAAITKSGVNTYYADSVKGRFTISRDNAKNTVYLQMTSLKPEDTAVYYCAKTLTYGFRRYDYWGQGTQVTVSS | high polyreactivity
19 | QVQLVESGGGLVQAGGSLRLSCAASGFIFKRYAMGWNRQAPGKVRELVAAITSRGGSTYYADSVKGRFTISRDNAKNTVYLQMNSLKPEDTAVYYCNAGTSAGSYDYWGQGTQVTVSS | high polyreactivity
20 | QVQLVESGGGLVQAGGSLRLSCAASGFIFKRYAMGWYRQAPGKERELVATISNSGGRTYYADSVKWRFTISRDNAKNTVYLQMNSLKPEDTAVYYCAALPFWWGGYWGQGTQVTVSS | high polyreactivity
21 | QVQLVESGGGLVQAGGSLRLSCAASGFIFKRYVMGWYRQAPGKERELVAGITRSGSSTSYADSVKGRFTISRDNAKNTVYLQMNSLKPEDTAVYYCAARAWKKLDYWGQGTQVTVSS | high polyreactivity
22 | QVQLVESGGGLVQAGGSLRLSCAASGFIFKVNAMGWYRQAPGKERGYVYADSVKGRFTISRDNAKNTVYLQMNSLKPEHTAVYYCAAEPGEGCDYWGQATQVTVSS | low polyreactivity

Row | Sequence | polyreactivity (PSR sort gate)
23 | QVQLVESGGGLVQAGGSLRLSCAASGFIFKWNAMGWYRQAPGKERELVAAITSGGGTYYADSVKGRFTISRDNAKNTVYLQMNSLKPEDTAVYYCAALGRYWPARRFDYWGQGTQVTVSS | high polyreactivity
24 | QVQLVESGGGLVQAGGSLRLSCAASGFIFKYYAMGWYRQAPGKERELVAAIRSGGGTNYADSVKGRFTISRDNAKNTVYLQMNSLKPEDTAVYYCAARGYTSYKHFGYWGQGTQVTVSS | high polyreactivity
25 | QVQLVESGGGLVQAGGSLRLSCAASGFIFKYYAMGWYRQAPGKERELVAAITGSGGRTYYADSVKGRFTISRDNAKNTVYLQMNSLKPEDTAVYYCAADLGGNSRLDYWGQGTQVTVSS | high polyreactivity
26 | QVQLVESGGGLVQAGGSLRLSCAASGFIFKYYTMGWYRQAPGKERELVAAISKNAGSTYYADSVKGRFTISRDNAKNTVYLQMNSLKPEDTAVYYCARTYSTWYYYWGQGTQVTVSS | high polyreactivity
27 | QVQLVESGGGLVQAGGSLRLSCAASGFIFLEYAMGWYRQAPGKERELVAAISSRGTRTYYADSVKGRFTISRDNAKNTVYLQMNSLKPEDSAVYYCARVWSQSSNYEYDYWGQGTQVTVSS | high polyreactivity
28 | QVQLVESGGGLVQAGGSLRLSCAASGFIFLKYRMGWYRQAPGKEREFVAAISRRGGSTNYADSVKGRFTISRDNEKNTVYLQMNSLKPEDTAVYYCGTDAFAGPVSYYYWGQGTQVSVSS | high polyreactivity
29 | QVQLVESGGGLVQAGGSLRLSCAASGFIFLRYGMGWYRQAPGKERELVASIDSSGGSTYADSVKGRFTISRDNEKNTVFLQMKSLKPEDTAVYYCAADYYIVSVRDYWGQGTQVTVSS | low polyreactivity
30 | QVQLVESGGGLVQAGGSLRLSCAASGFIFLYNAMGWYRQAPGKERELVAAITSSGGTTYYADSVKGRFTISRDNAKNTVYLQMNSLKPEDTAVYYCAARYTGRNGGSTTPEYDYWGQGTQVTVSS | low polyreactivity
31 | QVQLVESGGGLVQAGGSLRLSCAASGFIFLYYAMGWYRQAPGKERELVAAITTRGGRTYYADSVKGRFTISRDNAKNTVYLQMNSLIPEDTAVYYCAADHLYWGLEYESWGQGTQVTVSS | low polyreactivity
32 | QVQLVESGGGLVQAGGSLRLSCAASGFIFNFYAMGWYRQAPGKERELVAAISRNGGSTYYADSVKGRFTISRDNAKNTVYLQMNSLKPEDTAVYYCNAVGSYGDFGYWGQGTQVTVSS | high polyreactivity
33 | QVQLVESGGGLVQAGGSLRLSCAASGFIFNHYAMAWYRQAPGKEREFVAAISWSGGSTYYADSVNGRFTISLDNAKNTVYLQMNSLKPEDTAVYYCGASYNGLWHGDYDYWGQGTQVTVSS | low polyreactivity
34 | QVQLVESGGGLVQAGGSLRLSCAASGFIFNRYAMGRYRQAPGKERELVAAISSGGNTHYADSVKWRFTISRDNAKNTVLLQMNSLKPEDTAVYYCAKAFRHSTFFAPYDYWGQGSQVTVSS | low polyreactivity
35 | QVQLVESGGGLVQAGGSLRLSCAASGFIFNSYAMGWYRQAPGKERELVAAISRRGSSTYYADSVKGRFTISRDNAKNTVYLQMNSLKPEDTAVYYCAKRDRSTSWYLRDYWGQGTQVTVSS | high polyreactivity
36 | QVQLVESGGGLVQAGGSLRLSCAASGFIFNVYDMGWYRQAPGKERELVAAISTSGSNTYYADSVKVRFTISRDNAKNTVYLQMNSLKPEDTAVYYCNAVRVRVRWHYYAVYYWGQGTQVTVSS | high polyreactivity
37 | QVQLVESGGGLVQAGGSLRLSCAASGFIFNYYAMGWYRQAPGKEREFVAAITWRGGSTNYADSVKGRFTISRDNAKNTVYLQMNSLKPEETAVYYCAAYSVWGGSYLALDYWGQGTQVTVSS | low polyreactivity
38 | QVQLVESGGGLVQAGGSLRLSCAASGFIFNYYAMGWYRQAPGKERELVAAISPSGDNTYYADSVKGRFTISRDNAKNTVYLQMNSLKPEDTAVYYCNKVQGSWRVPYYYWGQGTQVTVSS | high polyreactivity
39 | QVQLVESGGGLVQAGGSLRLSCAASGFIFNYYTMGWYRQAPGKEREFVAAIRRSGTRTYYADSVKGRFTISRDNAKNTVYLQMNSLKPEDTAVYYCAADVYRTYGMDYWGQGTQVTVSS | high polyreactivity
40 | QVQLVESGGGLVQAGGSLRLSCAASGFIFPANAMGWYRQAPGKERQFVAAITRRGGSTYYADSVKGRFTISRDNAKNTVYLKMNSLKPEDTAVYYCAARVLSLYTYYYWGQGTQVTVYS | high polyreactivity
41 | QVQLVESGGGLVQAGGSLRLSCAASGFIFPGNAMGWYRPAPGKERELVAAISNSGSRTYYADSVKGRLTISRDNAKNTVYLQMNSLIPEDTAVYYCNADVHIRGWPYDYWGQGTQVTVSS | low polyreactivity
42 | QVQLVESGGGLVQAGGSLRLSCAASGFIFPGNVMGWYRQAPGKERELVAAITWSGGSTYYADSVKGRFTISRDNAKNTVYLQMNSLKPEDTAVYYCNADAFSFFGYLERMEYWGQGTLVTVSS | low polyreactivity
43 | QVQLVESGGGLVQAGGSLRLSCAASGFIFPGYAMGWYRQAPGKERELVAAISVSGGSTFYADSVKGRFTISRDNAKYTVYLQMNSLKPEDTAVYYCNARGYTWSYPLGIRVRYDYWGQGTQVTVSS | high polyreactivity
